Results from patent publication US5852187A, “Molecular cloning of the ovine pituitary growth hormone releasing hormone receptor” (priority 1996, dated 1998).
Where “and” joins values, the source holds several entries; their conditions need not be identical. Equal entries are not always repeated. Entries after “also recorded” stand apart in the source; their conditions may differ. Where two headings read alike, the source gives them in different places. Where no end group is shown, it is not given here. [ ]: non-standard residue; d: D form. The star is where a group is joined. Nle = CCCC[C@H](N)C(=O)O; 125I = [125I]*

Assays:
[1] = target: T1, secretin and VIP receptors (Homo sapiens, UniProt P47872); details: at 10 μM; cited from earlier work
T1 construct: host or cells: human pancreas tissue

GHRH receptor (GHRH-R) = assay: 125I-GHRHa binding assay in crude anterior pituitary membrane pellets; design: species or system ovine; details: for competition for the 125I-GHRHa binding site: 100 nM competing peptide; for displacement of GHRH in ovine pituitary: at 500 nM
Experimental: Specific binding is defined as the difference in the binding seen with 20 pM iodinated analog alone and binding of the analog in the presence of 10 nM non-iodinated GHRHa.
All steps were performed at 4° C. Frozen ovine or bovine anterior pituitaries (ovine: approximately 1 gm/pituitary obtained from Dr. Ian Clarke, Melbourne, Australia; bovine: approximately 2.5 gm/pituitary special handling from Pel-Freez, of Rogers, Ark.) were washed of blood, cleaned of connective tissue and homogenized (using a Dounce homogenizer) in 50 mM HEPES buffer, 100 mM NaCl, 10 mM EDTA, 0.1 μM EGTA, pH 7.4 with 0.5 mM PMSF (phenyl methyl sulfonyl fluoride), 10 μg/ml leupeptin, 10 μg/ml pepstatin A, and 200 U/ml (units/ml) aprotinin. This buffer is used to remove endogenous GTP which might be bound to G proteins and to restore high affinity binding. The homogenate was spun at top speed in a microfuge and the supernatant discarded. The upper (membrane) layer of the pellet was then gently resuspended in binding buffer containing 50 mM Tris buffer, 5 mM EGTA, 5 mM MgCl2, 50 μg/ml alamethicin, 30 μg/ml bacitracin and other protease inhibitors as above.
1/50 pituitary equivalent per tube was incubated in binding buffer with approximately 100,000 counts of iodinated probe in a volume of 500 μl at room temperature for 1 hour. The total counts delivered and the percent of counts bound for each tube was determined with 3 to 6 replicates per experimental condition. Saturation binding profiles were analyzed with the computer program Ligand which performs a statistically weighted least squares fit to the exact ligand binding equation in nontransformed coordinates.

[2] = target: T2, GHRH-R encoded by HAP 7 cDNA (Homo sapiens, UniProt Q02643); assay: Iodinated GHRH binding to COS cell membranes transfected with pCDM8 containing HAP 7 cDNA; details: for effect on binding of iodinated GHRH: 100 nM peptide, HAP transfected COS cells or membranes
T2 construct: expressed in transfected cells; host or cells: Cos-1 cells (membranes), pCDM8 vector
T2 sequence (Q02643 23-423): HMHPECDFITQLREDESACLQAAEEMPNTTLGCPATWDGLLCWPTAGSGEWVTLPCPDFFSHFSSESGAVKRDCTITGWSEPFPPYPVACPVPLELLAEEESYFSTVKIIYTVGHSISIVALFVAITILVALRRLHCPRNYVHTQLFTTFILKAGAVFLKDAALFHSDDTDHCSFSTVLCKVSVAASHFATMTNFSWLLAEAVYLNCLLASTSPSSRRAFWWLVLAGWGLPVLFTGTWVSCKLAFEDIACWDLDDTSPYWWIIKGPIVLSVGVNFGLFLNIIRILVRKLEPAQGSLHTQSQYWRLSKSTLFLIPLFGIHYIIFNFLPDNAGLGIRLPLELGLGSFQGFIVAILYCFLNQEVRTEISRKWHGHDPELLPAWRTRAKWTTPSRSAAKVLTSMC
Experimental: Cos-1 cells were transfected with the vector formed by splicing pCDM8 and HAP cDNA, and Cos-1 cell membranes were prepared 72 hours subsequently. Cos-1 cells were transfected using 10 μg of plasmid DNA per 6×10^5 cells in a 100-mm dish using the DEAE-dextran method described by Cullen. […] COS cell cultures were transfected in parallel with pCDM8 containing a cDNA encoding the rat AT1 angiotensin II receptor.

GHRH-R (55 kDa band) = assay: Photoaffinity cross-linking / photoprobe binding in pituitary membrane pellets (gamma counting, SDS-PAGE autoradiography); design: species or system ovine
Experimental: Photoprobe binding in ovine pituitary membrane pellets was determined by γ-counting and UV induced cross-linking was examined by autoradiography of sodium dodecylsulfate polyacrylamide electrophoresis (SDS-PAGE) gels. ^125 I-GHRHa -ANB-NOS probe bound with an affinity of about one nanomole, nM (compared to about 160 picomole, pM, for GHRHa).
Photoprobe binding to membranes was evaluated with crude membrane binding assay and then analyzed further by SDS-PAGE electrophoresis to identify the binding sites. Photoprobes were incubated in the dark, photolysed for 10 minutes with a long wave (366 nm) UV lamp, and then the samples were pelleted. The pellets were counted and then extracted by boiling directly in SDS sample buffer (total SDS extracts). Alternatively, the labeled pellets were extracted in a mild detergent solution (5 mM CHAPS) centrifuged, and the chloroform/methanol concentrated supernatants denatured with SDS buffer (CHAPS extracts). These samples were then electrophoresed in SDS gels and autoradiographed.

[3] = target: human GHRH receptor encoded by HAP 7.3 cDNA (human); assay: competition with iodinated GHRH analog, membranes of COS cells transfected with HAP 7 (FIG. 16)
[4] = target: ovine pituitary growth hormone releasing hormone receptor (ovine); assay: binding and displacement of iodinated GHRH analog, ovine pituitary membranes (FIG. 17)
[5] = target: ovine pituitary growth hormone releasing hormone receptor (ovine); assay: displacement of GHRH and its analogs, ovine anterior pituitary tissue
[6] = target: bovine pituitary GHRH receptor (bovine) (UniProt Q9TUJ0); assay: displacement of GHRH and its analogs, bovine anterior pituitary tissue
[7] = target: pituitary GHRH receptor (ovine or bovine, not said which at the place); assay: charcoal-dextran binding assay on pituitary membrane preparations solubilized in CHAPS without prebound ligand; the ligand is not named
[8] = target: ovine pituitary growth hormone releasing hormone receptor (ovine); assay: saturation binding analysed with the program Ligand, crude pituitary membrane pellets (FIG. 2)
[9] = target: ovine pituitary growth hormone releasing hormone receptor (ovine); assay: saturation binding analysed with the program Ligand, crude pituitary membrane pellets
[10] = target: ovine pituitary growth hormone releasing hormone receptor (ovine); assay: saturation binding with increasing unlabeled GHRHa, crude pituitary membrane pellets (FIG. 2)
[11] = target: monobiotinylated GHRHa (human) (UniProt P01286); assay: binding of iodinated biotinylated GHRHa forms to immobilized streptavidin, through the biotin group
[12] = target: dibiotinylated GHRHa (human) (UniProt P01286); assay: as above

T1 sequence (P47872 23-440): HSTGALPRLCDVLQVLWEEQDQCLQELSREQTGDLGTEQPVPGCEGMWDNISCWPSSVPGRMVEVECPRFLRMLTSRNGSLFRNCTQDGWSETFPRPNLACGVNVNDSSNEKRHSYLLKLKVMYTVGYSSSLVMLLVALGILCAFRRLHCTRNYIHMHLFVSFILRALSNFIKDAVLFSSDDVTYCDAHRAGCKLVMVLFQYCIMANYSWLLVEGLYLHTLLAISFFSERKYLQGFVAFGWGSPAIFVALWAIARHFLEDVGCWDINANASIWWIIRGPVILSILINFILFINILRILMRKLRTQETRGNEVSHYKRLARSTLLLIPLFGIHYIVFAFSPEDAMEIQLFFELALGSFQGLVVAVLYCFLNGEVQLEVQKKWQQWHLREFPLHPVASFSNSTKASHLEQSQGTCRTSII

GHRH(1-29)-NH2
inhibition of 125I-secretin binding [1]: 20%

CC[C@H](C)[C@H](NC(=O)CNC(=O)[C@H](CC(=O)O)NC(=O)[C@H](CO)NC(=O)[C@@H](N)Cc1c[nH]cn1)C(=O)N[C@@H](Cc1ccccc1)C(=O)N[C@H](C(=O)N[C@@H](CC(=O)O)C(=O)N[C@@H](CO)C(=O)N[C@@H](Cc1ccc(O)cc1)C(=O)N[C@@H](CO)C(=O)N[C@@H](CCCNC(=N)N)C(=O)N[C@@H](Cc1ccc(O)cc1)C(=O)N[C@@H](CCCNC(=N)N)C(=O)N[C@@H](CCCCN)C(=O)N[C@@H](CCC(N)=O)C(=O)N[C@@H](CCSC)C(=O)N[C@@H](C)C(=O)N[C@H](C(=O)N[C@@H](CCCCN)C(=O)N[C@@H](CCCCN)C(=O)N[C@@H](Cc1ccc(O)cc1)C(=O)N[C@@H](CC(C)C)C(=O)N[C@@H](C)C(=O)N[C@@H](C)C(=O)N[C@H](C(=O)N[C@@H](CC(C)C)C(=O)NCC(=O)N[C@@H](CCCCN)C(=O)N[C@@H](CCCNC(=N)N)C(=O)N[C@@H](Cc1ccc(O)cc1)C(=O)N[C@@H](CCCCN)C(=O)N[C@@H](CCC(N)=O)C(=O)N[C@@H](CCCNC(=N)N)C(=O)N[C@H](C(=O)N[C@@H](CCCCN)C(=O)N[C@@H](CC(N)=O)C(=O)N[C@@H](CCCCN)C(N)=O)C(C)C)C(C)C)C(C)C)[C@@H](C)O [PACAP, pituitary adenylate cyclase activating peptide]
competition for the 125I-GHRHa binding site (GHRH receptor (GHRH-R)): no competition; also recorded: did not compete | displacement of GHRH in ovine pituitary (GHRH receptor (GHRH-R)): significant displacement

PHM: competing peptide of the VIP family (HADGVFTSDFSKLLGQLSAKKYLESLM; ends and bridges not checked; UniProt P01282 81-107, looked up)
effect on binding of iodinated GHRH [2]: unaffected

secretin
effect on binding of iodinated GHRH [2]: unaffected

[His^1, Nle^27 ]-GHRH-(1-32)-NH2 [GHRHa]
Kd (GHRH receptor (GHRH-R); crude ovine pituitary membranes, program Ligand, read-out: Kd, saturation binding to a single high affinity site): 0.158 nM and ~0.16 nM | displacement of both photoprobes from membrane pellets (GHRH-R (55 kDa band); 10 nM GHRHa): totally displaced | effect on photo-cross-linked 55 kDa band (GHRH-R (55 kDa band); 10 nM GHRHa, 125I-GHRHa-ANB-NOS probe): completely eliminated

PACAP (pituitary adenylate cyclase activating peptide)
Ki [3]: 30 nM

^125 I-GHRHa: radioiodinated GHRHa probe, monoiodinated and HPLC purified (YADAIFTNSY(125I)RKVLGQLSARKLLQDI[Nle]SRQQG-NH2)
comparison with commercially available iodinated human GHRH (GHRH receptor (GHRH-R)): slightly better specific binding

[His 1, Nle27, Biotin-Lys4 1 ]-GHRH-(1-41)-NH2 [GHRHb]
receptor binding affinity compared to GHRHa (GHRH receptor (GHRH-R)): comparable to GHRHa

Nc1nc2c(ncn2[C@@H]2O[C@H](COP(=O)(O)OP(=O)(O)OP(O)(O)=S)[C@@H](O)[C@H]2O)c(=O)[nH]1 [GTPγS]
displacement of both photoprobes from membrane pellets (GHRH-R (55 kDa band); 50 μM GTPγS): partially displaced

monobiotinylated GHRHa: GHRHa biotinylated at lysine 12 or 21 with NHS-LC-Biotin, mono form resolved on HPLC (YADAIFTNSY(iodo)RKVLGQLSARKLLQDI[Nle]SRQQG-NH2; also: NHS-LC-Biotin on one of lysines 12 and 21)
receptor binding affinity compared to GHRHa (GHRH receptor (GHRH-R)): two-fold reduced

[His1, Nle27]-GHRH-(1-32)-NH2 (from UniProt P01286) (peptide)
Kd [4]: 0.2 nM | fold lower displacing concentration than VIP or PACAP [5]: 500 fold and 1000 fold | fold lower displacing concentration than VIP or PACAP [6]: 500 fold and 1000 fold | Kd [7]: 500 nM | Kd [8]: 0.15 nM | Kd [9]: 0.158 nM | Kd [10]: 0.16 nM

O[C@H](CS)[C@H](O)CS (racemic) [dithiothreitol]
effect on specific binding in the GHRH assay (GHRH receptor (GHRH-R); preincubation with 1 mM): completely eliminated

C[C@H](N)C(=O)NCC(=O)N[C@H]1CSSC[C@@H](C(=O)O)NC(=O)[C@H](CO)NC(=O)[C@H]([C@@H](C)O)NC(=O)[C@H](Cc2ccccc2)NC(=O)[C@H]([C@@H](C)O)NC(=O)[C@H](CCCCN)NC(=O)[C@H](Cc2c[nH]c3ccccc23)NC(=O)[C@H](Cc2ccccc2)NC(=O)[C@H](Cc2ccccc2)NC(=O)[C@H](CC(N)=O)NC(=O)[C@H](CCCCN)NC1=O [somatostatin]
effect on binding of iodinated GHRH [2]: unaffected

immobilized streptavidin (from UniProt P22629) (tool reagent)
percent of product bound [11]: > 90% | percent of product bound [12]: > 90%

His^1, ^125 I-Tyr^10,Nle^27 human GHRH(1-29)NH2
binding of radioligand to HAP cDNA transfected COS cell membranes ([2]; not seen in angiotensin receptor cDNA transfected COS cells): specific, high-affinity binding

parathyroid hormone
effect on binding of iodinated GHRH [2]: unaffected

calcitonin
effect on binding of iodinated GHRH [2]: unaffected

vasoactive intestinal peptide [VIP]
competition for the 125I-GHRHa binding site (GHRH receptor (GHRH-R)): no competition; also recorded: did not compete | displacement of GHRH in ovine pituitary (GHRH receptor (GHRH-R)): not | effect on photo-cross-linked 55 kDa band (GHRH-R (55 kDa band); 100 nM VIP): unaffected | effect on binding of iodinated GHRH [2]: unaffected; also recorded: no effect | inhibition of 125I-secretin binding [1]: 20%

GHRH: growth hormone releasing hormone; the competitor in FIG. 17 is GHRHa
Kd (GHRH receptor (GHRH-R); ovine pituitary membranes, displacement data of FIG. 17, read-out: KD for GHRH binding in pituitary): 0.2 nM

^125 I-GHRHa -ANB-NOS: GHRHa coupled to N-5-azido-2-nitrobenzoyloxysuccinimide at lysine 12 or 21, then iodinated; photoprobe (YADAIFTNSY(125I)RKVLGQLSARKLLQDI[Nle]SRQQG-NH2; also: N-5-azido-2-nitrobenzoyl (ANB-NOS) on lysine 12 or 21)
affinity of photoprobe binding (GHRH-R (55 kDa band); ovine pituitary membrane pellets, gamma-counting): about one
